Measurements: patent publication US20120172298A1, “GLP-1 AND FGF21 COMBINATIONS FOR TREATMENT OF DIABETES TYPE 2” (Novo Nordisk A/S, priority 2009, published 2012)

Tests used:
[1] = system: rat insulinoma beta-cells (INS-1); assay: FFA induced apoptosis of INS-1 beta-cells (Caspase-3/7 assay); format: cell-based; settings: 48 hours, FGF21 compound = F1 50 nM, GLP-1 compound = G1 50 nM, mean +/- SEM
Description: (§1) This ex vivo example investigates the influence of FGF21 and GLP-1 compounds on FFA (free fatty acid) induced apoptosis of rat insulinoma beta-cells (INS-1).
(§2) Compound F1 (Prospec, cat. no. CYT-474) was used as the FGF21 compound, and compound G1 was used as the GLP-1 compound.
INS-1 cells were seeded in 96-well plates (50000 cells/well) and incubated overnight in cell medium (RPMI 1640 medium (Gibco, cat. no. 61870-010), supplemented with 10% FCS (Gibco, cat. no. 10085-140), 1% Pen/Strep (Gibco, cat. no. 15140-114) and 0.5 ml beta-mercaptoethanol (Gibco, cat. no. 31350-010 (50 mM)). The FGF21 compound (50 nM) and the GLP-1 compound (50 nM) were added to the cells 1 hour before the cells were to be exposed to FFA. The FFA's were prepared as follows: Stock solutions of palmitic acid (Sigma P5585) and oleic acid (Sigma 01383) of 1M in DMSO were mixed 1:2 and heated to 60 degree Celsius. The FFA mix was then diluted 10 times in 0.1M NaOH. This mixture was then further diluted in cell medium to yield a FFA concentration of 1 mM. The FFAs were then added to the cells to a final concentration of 0.35 mM. […]

db/db mice [2] = assay: Effect on blood glucose in vivo, subchronic study in db/db mice; settings: F1 0.5 mg/kg, G1 30 nmol/kg or both
Description: This subchronic in vivo dosing study investigates the effect of GLP-1 and FGF21 compounds on blood glucose. The study was performed in db/db mice (as described in Example 5).
48 db/db mice, male, 11-12 weeks of age at study start.
Dosed subcutaneously 2 × daily with either (i) 0.5 mg/kg human FGF21 (compound F1; n=12); (ii) 30 nmol/kg of GLP-1 compound G1 (n=12); (iii) a combination of 0.5 mg/kg of compound F1 and 30 nmol/kg of compound G1 (n=12); or (iv) vehicle (sterile PBS buffer, n=12).
All groups were dosed for 21 days.
Blood samples of 10 μl were taken from the tip of the tail for blood glucose measurements once weekly.

[3] = system: rat insulinoma beta-cells (INS-1); assay: Insulin accumulated in the medium of INS-1 cells during 48 hour incubation with FFA; format: cell-based; settings: for Insulin accumulated in the medium: 48 hours, FGF21 compound = F1 50 nM, GLP-1 compound = G1 50 nM, mean +/- SEM
Description: as §1, §2
INS-1 cells were seeded in 96-well plates (50000 cells/well) and incubated overnight in cell medium (RPMI 1640 medium (Gibco, cat. no. 61870-010), supplemented with 10% FCS (Gibco, cat. no. 10085-140), 1% Pen/Strep (Gibco, cat. no. 15140-114) and 0.5 ml beta-mercaptoethanol (Gibco, cat. no. 31350-010 (50 mM)). The FGF21 compound (50 nM) and the GLP-1 compound (50 nM) were added to the cells 1 hour before the cells were to be exposed to FFA. The FFA's were prepared as follows: Stock solutions of palmitic acid (Sigma P5585) and oleic acid (Sigma 01383) of 1M in DMSO were mixed 1:2 and heated to 60 degree Celsius. The FFA mix was then diluted 10 times in 0.1M NaOH. This mixture was then further diluted in cell medium to yield a FFA concentration of 1 mM. The FFAs were then added to the cells to a final concentration of 0.35 mM. The cells were incubated for 48 hours and then the following three assays were performed: 1) Cell viability was assessed using the CellTiter 96® Non-radioactive Cell Proliferation Assay (MTT) from Promega, performed according to the manufacturer's instruction (absorbance at 550 nm, A550); 2) Apoptosis was assessed using the Apo-ONE® Homogeneous Caspase-3/7 Assay from Promega, performed according to the manufacturer's instruction (fluorescence); and 3) Insulin accumulated in the medium during the 48 hour incubation with FFA was analysed (as described in Example 3; ng/ml insulin).
The results of 1), 2) and 3) are shown in Tables 4, 5, and 6 below, respectively, all figures being mean+/−standard error of mean (SEM). […]

db/db mice [4] = assay: Effect on blood glucose in vivo, acute study in db/db mice; settings: compound F1 0.125 mg/kg s.c. 1 × daily for 3 days and/or compound G4 1 nmol/kg s.c. one hour after last FGF21 dose, 0-48 hours post GLP-1 dose
Description: This acute in vivo study investigates the effect of FGF21 and GLP-1 compounds on blood glucose levels of db/db mice.
The db/db mouse is a hyperglycaemic, hyperinsulinaemic, hyperphagic and obese model of type 2 diabetes.
23 db/db mice (Male, C57BLKS db/db, from Taconic, Denmark, 15-16 weeks of age).
Dosed subcutaneously 1 × daily with 0.125 mg/kg human FGF21 (n=11) (compound F1) or vehicle (n=12) for 3 days. Vehicle was sterile PBS-buffer (DPBS, Gibco, cat. no. 14190).
Both groups of animals were then dosed with either vehicle or GLP-1 compound G4 at 1 nmol/kg (n=5-6). The G4 compound is a GLP-1 analogue which has an extended half-life due to its derivatisation with an albumin binder. The GLP-1 or vehicle dose was given subcutaneously one hour after the last FGF21 or vehicle dose.
Blood samples of 10 μl were taken from the tip of the tail for the measurement of blood glucose from 0-48 hours post dose of the GLP-1 compound.
Results were analysed using the area under the glucose curve (AUC) for the vehicle group, the GLP-1 group, the FGF21 group and the combined group.
The expected AUC was calculated using the following formula: […]
AUCvehicle−((AUCvehicle−AUCFGF212)+(AUCvehicle−AUCGLP-1))

B1: Met-FGF21_human (protein, listed as Homo sapiens)
chain: HPIPDSSPLLQFGGQVRQRYLYTDDAQQTEAHLEIREDGTVGGAADQSPESLLQLKALKPGVIQILGVKTSRFLCQRPDGALYGSLHFDPEACSFRELLLEDGYNVYQSEAHGLPLHLPGNKSPHRDPAPRGPARFLPLPGLPPALPEPPGILAPQPPDVGSSDPLSMVGPSQGRSPSYAS
modifications: N-terminal Met; mat_peptide (1)..(181); DISULFID (75)..(93)
[1]; FFA 0.00 mM
  Apoptosis (Caspase 3/7 assay, fluorescense): 1827 +/− 22
[1]; FFA 0.35 mM
  Apoptosis (Caspase 3/7 assay, fluorescense): 33278 +/− 1254
db/db mice [2]; Day 0, s.c. 2 × daily
  Blood glucose: 19.9 ± 1.2 mmol/L
db/db mice [2]; Day 7, s.c. 2 × daily
  Blood glucose: 17.2 ± 1.3 mmol/L
db/db mice [2]; Day 14, s.c. 2 × daily
  Blood glucose: 16.2 ± 1.8 mmol/L
db/db mice [2]; Day 21, s.c. 2 × daily
  Blood glucose: 19.2 ± 3.0 mmol/L
[3]; FFA 0.00 mM
  Insulin accumulated in the medium: 1011 ± 112 ng/mL
[3]; FFA 0.35 mM
  Insulin accumulated in the medium: 569 ± 14 ng/mL
[3]; absence of free fatty acids, F1 50 nM
  stimulation of insulin release: does not stimulate insulin release
db/db mice [4]
  Glucose lowering capacity (AUC), blood glucose AUC0-48 h, mean: 389.8 mM·min
